In patent US20240417458A1 (DISC MEDICINE, published 2024):

Tests used:
soluble human RGMc [1] = target: T1, soluble human RGMc (human, UniProt Q6ZVN8 36-400); assay: SPR; method not named in Example 2
T1 construct: also called huRGMc; soluble hRGMc
T1 sequence: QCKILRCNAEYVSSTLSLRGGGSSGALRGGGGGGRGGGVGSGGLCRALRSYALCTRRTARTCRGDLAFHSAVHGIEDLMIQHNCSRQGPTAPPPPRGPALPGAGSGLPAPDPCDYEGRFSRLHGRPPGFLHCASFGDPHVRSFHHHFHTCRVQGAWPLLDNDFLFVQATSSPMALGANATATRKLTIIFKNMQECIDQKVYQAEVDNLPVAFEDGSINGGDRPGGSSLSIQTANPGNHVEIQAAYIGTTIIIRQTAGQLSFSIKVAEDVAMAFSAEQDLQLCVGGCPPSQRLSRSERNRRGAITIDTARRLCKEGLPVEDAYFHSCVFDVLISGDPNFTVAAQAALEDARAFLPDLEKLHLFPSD

soluble human RGMa [2] = target: T2, soluble human RGMa (human, UniProt Q96B86 48-422, limits assumed); assay: SPR; method not named in Example 2
T2 construct: Soluble antigen in BIAcore; also called huRGMa; repulsive guidance molecule A
T2 sequence (looked up): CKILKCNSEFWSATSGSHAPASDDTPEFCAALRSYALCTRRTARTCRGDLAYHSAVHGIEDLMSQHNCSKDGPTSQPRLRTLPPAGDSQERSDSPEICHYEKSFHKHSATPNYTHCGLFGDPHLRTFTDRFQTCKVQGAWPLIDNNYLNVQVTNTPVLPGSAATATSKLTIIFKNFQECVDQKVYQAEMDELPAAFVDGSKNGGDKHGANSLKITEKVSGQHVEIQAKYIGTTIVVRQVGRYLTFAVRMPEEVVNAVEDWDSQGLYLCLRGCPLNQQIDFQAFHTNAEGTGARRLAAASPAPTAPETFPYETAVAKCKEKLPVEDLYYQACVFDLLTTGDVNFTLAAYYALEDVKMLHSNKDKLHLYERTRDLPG

soluble human RGMc [3] = target: T1, soluble human RGMc; assay: SPR (BIAcore), RGM antigen in solution
soluble human RGMa [4] = target: T2, soluble human RGMa; assay: SPR (BIAcore), RGM antigen in solution
Cyno RGMa = target: T3, Cyno RGMa (cyno, UniProt Q9N0A6 54-433, limits assumed); assay: SPR (BIAcore), RGM antigen in solution
T3 sequence (looked up): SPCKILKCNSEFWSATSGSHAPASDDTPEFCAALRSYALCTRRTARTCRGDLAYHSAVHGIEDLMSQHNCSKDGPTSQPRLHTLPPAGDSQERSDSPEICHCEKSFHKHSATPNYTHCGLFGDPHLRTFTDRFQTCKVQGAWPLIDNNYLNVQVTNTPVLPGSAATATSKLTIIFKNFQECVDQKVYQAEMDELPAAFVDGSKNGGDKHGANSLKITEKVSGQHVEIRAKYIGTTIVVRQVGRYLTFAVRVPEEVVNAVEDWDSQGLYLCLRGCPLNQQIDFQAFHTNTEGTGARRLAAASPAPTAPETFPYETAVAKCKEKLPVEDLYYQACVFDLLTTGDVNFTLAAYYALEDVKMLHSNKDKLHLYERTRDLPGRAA

Human RGMb = target: T4, Human RGMb (human, UniProt Q6NW40 46-413, limits assumed); assay: SPR (BIAcore), RGM antigen in solution
T4 construct: also called repulsive guidance molecule B
T4 sequence (looked up): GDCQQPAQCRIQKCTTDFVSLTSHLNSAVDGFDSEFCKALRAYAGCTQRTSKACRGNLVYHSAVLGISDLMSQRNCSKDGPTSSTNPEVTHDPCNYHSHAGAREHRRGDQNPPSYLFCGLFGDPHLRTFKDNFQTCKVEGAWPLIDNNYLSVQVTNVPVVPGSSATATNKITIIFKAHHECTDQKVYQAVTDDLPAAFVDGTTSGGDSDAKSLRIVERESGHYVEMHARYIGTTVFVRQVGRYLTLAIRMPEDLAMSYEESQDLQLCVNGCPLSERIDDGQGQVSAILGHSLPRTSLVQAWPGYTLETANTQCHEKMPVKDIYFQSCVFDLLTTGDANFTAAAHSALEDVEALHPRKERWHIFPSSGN

Rat RGMc = target: T5, Rat RGMc (rat, UniProt Q8N7M5 36-396, limits assumed); assay: SPR (BIAcore), RGM antigen in solution
T5 sequence (looked up): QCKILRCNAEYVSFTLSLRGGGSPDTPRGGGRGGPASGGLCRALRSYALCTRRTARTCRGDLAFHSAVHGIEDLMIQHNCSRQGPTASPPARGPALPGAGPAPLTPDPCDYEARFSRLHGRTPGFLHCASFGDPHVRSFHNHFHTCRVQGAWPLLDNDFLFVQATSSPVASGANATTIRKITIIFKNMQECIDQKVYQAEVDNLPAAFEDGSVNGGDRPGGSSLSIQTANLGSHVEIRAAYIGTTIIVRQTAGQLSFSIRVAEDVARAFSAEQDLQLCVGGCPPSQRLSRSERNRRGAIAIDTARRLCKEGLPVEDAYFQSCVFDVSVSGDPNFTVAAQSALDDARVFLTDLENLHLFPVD

Cyno RGMc = target: T6, Cyno RGMc (cyno, UniProt A0A2K5TJX5 36-401); assay: SPR (BIAcore), RGM antigen in solution
T6 sequence: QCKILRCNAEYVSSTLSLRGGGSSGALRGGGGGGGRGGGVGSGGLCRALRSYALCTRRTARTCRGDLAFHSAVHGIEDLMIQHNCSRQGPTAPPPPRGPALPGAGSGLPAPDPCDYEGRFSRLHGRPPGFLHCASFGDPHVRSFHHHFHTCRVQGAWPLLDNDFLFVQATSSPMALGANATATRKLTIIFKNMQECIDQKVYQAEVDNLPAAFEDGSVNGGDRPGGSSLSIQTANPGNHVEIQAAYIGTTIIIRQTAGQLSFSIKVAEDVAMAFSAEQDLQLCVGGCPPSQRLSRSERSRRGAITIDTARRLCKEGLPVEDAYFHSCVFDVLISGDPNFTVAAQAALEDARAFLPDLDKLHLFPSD

[5] = target: T7, membrane-bound human RGMc (human, UniProt Q6ZVN8 36-400); assay: cell-based or functional assay
T7 sequence: T1 sequence

Kd (soluble human RGMc [1]): 0.11 nM
koff (soluble human RGMc [1]): 0.00032 s⁻¹
kon (soluble human RGMc [1]): 3e+06 M⁻¹ s⁻¹
Kd (soluble human RGMa [2]): 0.078 nM
koff (soluble human RGMa [2]): 4.2e-05 s⁻¹
kon (soluble human RGMa [2]): 540000 M⁻¹ s⁻¹
Kd (soluble human RGMc [3]): 0.12 nM
koff (soluble human RGMc [3]): 0.00029 s⁻¹
kon (soluble human RGMc [3]): 2.5e+06 M⁻¹ s⁻¹
Kd (soluble human RGMa [4]): 0.074 nM
koff (soluble human RGMa [4]): 3.6e-05 s⁻¹
kon (soluble human RGMa [4]): 490000 M⁻¹ s⁻¹
Kd (Cyno RGMa): 0.64 nM
koff (Cyno RGMa): 0.00035 s⁻¹
kon (Cyno RGMa): 550000 M⁻¹ s⁻¹
binding result (Human RGMb): no binding
Kd (Rat RGMc): 0.23 nM
koff (Rat RGMc): 0.00032 s⁻¹
kon (Rat RGMc): 1.4e+06 M⁻¹ s⁻¹
Kd (Cyno RGMc): 0.12 nM
koff (Cyno RGMc): 0.00031 s⁻¹
kon (Cyno RGMc): 2.6e+06 M⁻¹ s⁻¹
IC50 (read off the curve) [5]: ~0.4 nM
B1: hHA-008 (antibody, human IgG1, kappa, L234A L235A)
heavy: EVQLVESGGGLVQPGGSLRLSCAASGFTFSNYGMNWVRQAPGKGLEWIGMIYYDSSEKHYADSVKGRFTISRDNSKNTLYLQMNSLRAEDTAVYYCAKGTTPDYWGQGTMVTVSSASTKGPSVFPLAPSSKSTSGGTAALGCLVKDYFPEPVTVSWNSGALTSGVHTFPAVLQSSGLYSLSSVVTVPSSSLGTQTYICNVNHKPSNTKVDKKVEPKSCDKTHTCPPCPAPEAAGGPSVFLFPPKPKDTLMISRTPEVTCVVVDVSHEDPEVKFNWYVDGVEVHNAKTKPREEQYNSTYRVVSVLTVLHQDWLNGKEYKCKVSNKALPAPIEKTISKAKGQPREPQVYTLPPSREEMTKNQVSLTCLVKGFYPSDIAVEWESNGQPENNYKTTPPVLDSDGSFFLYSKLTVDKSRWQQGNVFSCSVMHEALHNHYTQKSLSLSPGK
light: DVVLTQSPLSLPVTLGQPASISCRSSQSLEESDGYTFLHWFQQRPGQSPRLLIYEVSTRFSGVPDRFSGSGSGTDFTLKISRVEAEDVGVYYCFQATHDPLTFGQGTKLEIKRTVAAPSVFIFPPSDEQLKSGTASVVCLLNNFYPREAKVQWKVDNALQSGNSQESVTEQDSKDSTYSLSSTLTLSKADYEKHKVYACEVTHQGLSSPVTKSFNRGEC
notes: hIgG1 L234A, L235A, kappa; also called hHA-008 (hIgG1mut(LALA)/k)
